The values below come from patent US9333272B2, “Fibrin binding peptide conjugates for diagnostic and therapeutic applications” (Bracco Imaging SpA, priority 2006, dated 2016).

Ends that are not written are not given here.

Test [1] has as its target T1, fibrin in human plasma clots (Homo sapiens, UniProt P02671+P02675+P02679).
T1 construct: tissue Dade Behring Control Plasma N; host or cells: clots formed in vitro from pooled human plasma with Pathromtin SL and CaCl2
T1 sequence (P02671 36-629 limits assumed): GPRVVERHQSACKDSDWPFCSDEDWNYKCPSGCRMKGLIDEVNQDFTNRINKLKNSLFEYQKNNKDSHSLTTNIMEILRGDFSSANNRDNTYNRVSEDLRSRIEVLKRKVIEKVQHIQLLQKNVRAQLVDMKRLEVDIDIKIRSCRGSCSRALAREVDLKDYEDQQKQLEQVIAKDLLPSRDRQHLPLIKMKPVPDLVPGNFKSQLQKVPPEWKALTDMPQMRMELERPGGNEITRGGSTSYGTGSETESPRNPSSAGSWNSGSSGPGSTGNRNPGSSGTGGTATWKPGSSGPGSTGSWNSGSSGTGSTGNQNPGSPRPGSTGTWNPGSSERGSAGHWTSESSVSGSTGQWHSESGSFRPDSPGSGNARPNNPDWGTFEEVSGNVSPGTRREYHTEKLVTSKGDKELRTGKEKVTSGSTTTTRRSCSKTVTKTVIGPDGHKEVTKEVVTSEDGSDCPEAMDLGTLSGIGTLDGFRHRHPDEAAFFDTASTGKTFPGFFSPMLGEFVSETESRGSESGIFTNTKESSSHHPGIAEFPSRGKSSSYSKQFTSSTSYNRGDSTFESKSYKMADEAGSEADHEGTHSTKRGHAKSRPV
T1 sequence (P02675 45-491 limits assumed): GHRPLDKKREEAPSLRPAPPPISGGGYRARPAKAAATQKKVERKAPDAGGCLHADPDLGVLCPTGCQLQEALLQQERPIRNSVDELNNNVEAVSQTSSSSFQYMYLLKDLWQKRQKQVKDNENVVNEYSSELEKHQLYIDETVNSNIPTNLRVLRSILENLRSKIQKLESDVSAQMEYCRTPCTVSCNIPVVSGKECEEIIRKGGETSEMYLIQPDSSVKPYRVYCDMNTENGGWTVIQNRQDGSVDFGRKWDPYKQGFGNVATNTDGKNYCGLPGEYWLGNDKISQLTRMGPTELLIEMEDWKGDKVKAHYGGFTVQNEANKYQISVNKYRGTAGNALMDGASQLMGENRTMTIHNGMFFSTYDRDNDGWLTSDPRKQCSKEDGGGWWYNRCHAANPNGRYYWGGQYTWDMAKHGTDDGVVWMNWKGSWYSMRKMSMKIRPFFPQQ
T1 sequence (P02679 27-437 isoform P02679-2 limits assumed): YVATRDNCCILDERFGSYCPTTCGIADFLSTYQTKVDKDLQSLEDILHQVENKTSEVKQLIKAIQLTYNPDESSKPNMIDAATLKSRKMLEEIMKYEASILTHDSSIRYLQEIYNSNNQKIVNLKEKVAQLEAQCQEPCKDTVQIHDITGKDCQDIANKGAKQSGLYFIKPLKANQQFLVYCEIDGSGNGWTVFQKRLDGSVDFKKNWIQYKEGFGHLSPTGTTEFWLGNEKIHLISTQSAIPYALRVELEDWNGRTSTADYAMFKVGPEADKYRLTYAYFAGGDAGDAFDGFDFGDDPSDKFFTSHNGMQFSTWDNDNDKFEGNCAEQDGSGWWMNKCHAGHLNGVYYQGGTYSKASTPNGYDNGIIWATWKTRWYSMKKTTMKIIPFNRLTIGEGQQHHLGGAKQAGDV
Description: In vitro MRI of plasma clots at 100 μM (Example 14). As for the experimental part: Small plasma clots from different species (human, guinea pig and mouse) were formed by combining citrate plasma (1:3,v/v) phospholipids (Reagent Pathromtin) and CaCl2 0.008 M (Dade Behring, Germany) into small 2 ml vials at 37° C. Clots were washed 3 times with TBS 1× and incubated with contrast agents at a concentration of 100 μM of complex, for 30 minutes at 37° C. Two clots were prepared for each solution of incubation. After the incubation clots were washed 4 times with TBS 1× and placed into small vials filled with TBS 1× for MRI analysis. […] Maximum signal intensity of each clot was measured in recovered MR images and compared to the signal from clots incubated with TBS. […]
(§1) High resolution MRI was then performed at 2 Tesla by using T1-weighted Spin-Echo (SE) sequences. T1 maps were also calculated from the acquisitions of 2D gradient echo images or inversion recovery spin echo images.
(§2) The maximum signal intensity was measured within a region of interest (ROI) including a clot, drawn by an operator on each MR image using a dedicated software (MR Research Systems Ltd, Surrey UK). Max signal intensity enhancement (Enh %) was determined as: Enh %=100*(SIx−SI0)/SI0 where SI0 and SIx are the signal intensity of clots incubated without and with test compounds, respectively.

A further test addresses T2, fibrin in human clots (Homo sapiens, UniProt P02671+P02675+P02679).
T2 construct: tissue Dade Behring Control Plasma N; host or cells: clots formed in vitro from pooled human plasma with Pathromtin SL and CaCl2
T2 sequence (P02671 36-629 limits assumed): T1 sequence (P02671 36-629 limits assumed)
T2 sequence (P02675 45-491 limits assumed): T1 sequence (P02675 45-491 limits assumed)
T2 sequence (P02679 27-437 isoform P02679-2 limits assumed): T1 sequence (P02679 27-437 isoform P02679-2 limits assumed)
Kind of test: In vitro MRI of human clots at different incubation concentrations (Example 15). Here is the method: By following the above procedure, a second wider group of chelate compounds of the invention including, for instance, Chelate Complexes from 1 to 7 and the Reference Compounds from 1 to 6 were tested on human clots at different incubation concentration (25 to 400 μM of complex). Signal enhancement (%) was then determined for each clots by MR Imaging at 2T and corresponding Gd content in clots was measured by ICP.
By comparing the signal enhancement in clots, for instance at incubation concentration of 100 μM of peptide, tested compounds could be classified in term of performance as follows (Max signal enhancement was normalized to the chelate complex 4): […]
as §1, §2

Turning to “Chelate Complex 1: Gd chelate (four DTPA-Glu) conjugated via linker to fibrin-binding peptide SEQ ID NO:001 (WQPCPAESWTFCWDPGGGK; cysteine pairing not given here; also: Gd chelate (four DTPA-Glu) conjugated via linker, site not given here, metal complex: Gd)”, the “Signal enhancement in clots, comparison in words” value in test [1] (100 μM of complex) was “provides the maximum signal enhancement”; with fibrin in human clots (incubation concentration 100 μM), “best results”. Further, the “Max signal Enhancement at 100 μM” value in test [1] (clots incubated with 100 μM of complex, 30 min, 37°C, T1-weighted MRI at 2T, normalized to chelate complex 1) stood at 100%. In the test with fibrin in human clots (human clots, incubation 100 μM of peptide, MRI at 2T, normalized to chelate complex 4), the “Max signal Enhancement (%) at 100 μM” value was 93.2%.
